Test results published in patent US8158585B2, “Cross-β structure comprising amyloid-binding proteins and methods for detection of the cross-β structure, for modulating cross-β structures fiber formation and modulating cross-β structure-mediated toxicity” (CrossBeta Biosciences B.V., priority 2002, dated 2012).

Legend:
[1] = target: T1, human amylin fragment hΔIAPP (Homo sapiens, UniProt P10997); assay: Dot blot: binding of FXII to hΔIAPP; conditions: 2 nM FXII
T1 construct: purchased Pepscan, Inc. or peptide synthesis facility of the Netherlands Cancer Institute; host or cells: chemical synthesis
Description: (§1) The binding of human FXII (Calbiochem, La Jolla, Calif., USA, catalogue #233490) to amyloid (poly)peptides was tested. Prototype amyloid peptides human amyloid-β (1-40) (hAβ (1-40)) and human fibrin fragment α147-159 FP13, and glucose-6-phosphate glycated bovine albumin (albumin-advanced glycation end product (AGE)) and glucose-6-phosphate glycated human hemoglobin (Hb-AGE), all containing cross-β structure, as well as negative controls mouse A islet amyloid polypeptide (ΔmIAPP), albumin-control and Hb-control, all three lacking the amyloid-specific structure, were coated to ELISA plates and overlayed with a concentration series of human factor XII. Binding of FXII was detected using a rabbit polyclonal anti-FXII antibody (Calbiochem, La Jolla, Calif., USA, catalogue #233504) and peroxidase-labeled swine anti-rabbit IgG. Wells were coated in triplicate. The FXII binding buffer included 10 mM HEPES pH 7.3, 137 mM NaCl, 11 mM D-glucose, 4 mM KCl, 1 mg ml^−1 albumin, 50 μM ZnCl2, 0.02% (m/v) NaN3 and 10 mM ε-amino caproic acid (εACA). Lysine analogue εACA was added to avoid putative binding of FXII to cross-β structure via the FXII kringle domain. In addition, binding of FXII to hAβ (1-40) and the prototype amyloid human amylin fragment hΔIAPP was tested using dot blot analysis. […]

[2] = test system: ΔmIAPP, albumin-control and Hb-control; assay: ELISA: binding of human FXII to negative controls
Description: as §1

hAβ (1-40) = target: T2, hAβ (1-40) (Homo sapiens, UniProt P05067); assay: Dot blot: binding of FXII to hAβ (1-40); conditions: 2 nM FXII
T2 construct: Peptide Aβ (1-40), containing amino acids as present in the described human Alzheimer peptide; purchased Pepscan, Inc. or peptide synthesis facility of the Netherlands Cancer Institute; host or cells: chemical synthesis
T2 sequence (P05067 672-711): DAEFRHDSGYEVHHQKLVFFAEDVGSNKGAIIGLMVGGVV
Description: as §1

mΔIAPP [3] = target: T3, mΔIAPP (Mus musculus, UniProt P12968); assay: Dot blot: binding of FXII to mΔIAPP; conditions: 2 nM FXII
T3 construct: purchased Pepscan, Inc. or peptide synthesis facility of the Netherlands Cancer Institute; host or cells: chemical synthesis
Description: as §1

Aβ (1-40) = Aβ (1-40) (Homo sapiens, UniProt P05067); assay: ELISA: binding of tPA-F-GST and RPTPμ-GST to human Aβ (1-40); set-up: Peptide Aβ (1-40), containing amino acids as present in the described human Alzheimer peptide; purchased Pepscan, Inc. (The Netherlands) or peptide synthesis facility at the Netherlands Cancer Institute; host or cells: synthetic peptide; conditions: in the presence of excess εACA
Aβ (1-40), sequence (P05067 672-711): as above
Description: (§2) Binding of tPA-F-GST and RPTPμ-GST to fibrous amyloids human Aβ (1-40) and albumin-[…] was assayed with an ELISA. In brief, human Aβ (1-40), albumin-[…], or buffer only, were coated on a peptide I Immobilizer or a protein I Immobilizer, respectively. Wells were incubated with the purified GST-tagged constructs or control medium and binding was detected using primary anti-GST monoclonal antibody 2F3 and RAMPO. The wells were also incubated with […] of tPA in the presence of 10 mM of εACA. Binding of tPA is independent of the lysyl binding site located at the kringle 2 domain. Binding of tPA was measured using primary antibody 374B and RAMPO. Experiments were performed in triplicate and blank readings of non-coated wells were substracted.

[4] = target: T4, FXII binding to albumin-AGE (Bos taurus, UniProt P02769); assay: Competitive FXII - tPA ELISA on coated albumin-AGE; conditions: 15 nM FXII; concentration series up to 150 times the kD
T4 construct: bovine serum albumin (fraction V, catalogue #A-7906); purchased Calbiochem (FXII); ICN or Sigma-Aldrich (albumin) 233490 (FXII); A-7906 (Sigma albumin)
T4 sequence (P02769 25-607): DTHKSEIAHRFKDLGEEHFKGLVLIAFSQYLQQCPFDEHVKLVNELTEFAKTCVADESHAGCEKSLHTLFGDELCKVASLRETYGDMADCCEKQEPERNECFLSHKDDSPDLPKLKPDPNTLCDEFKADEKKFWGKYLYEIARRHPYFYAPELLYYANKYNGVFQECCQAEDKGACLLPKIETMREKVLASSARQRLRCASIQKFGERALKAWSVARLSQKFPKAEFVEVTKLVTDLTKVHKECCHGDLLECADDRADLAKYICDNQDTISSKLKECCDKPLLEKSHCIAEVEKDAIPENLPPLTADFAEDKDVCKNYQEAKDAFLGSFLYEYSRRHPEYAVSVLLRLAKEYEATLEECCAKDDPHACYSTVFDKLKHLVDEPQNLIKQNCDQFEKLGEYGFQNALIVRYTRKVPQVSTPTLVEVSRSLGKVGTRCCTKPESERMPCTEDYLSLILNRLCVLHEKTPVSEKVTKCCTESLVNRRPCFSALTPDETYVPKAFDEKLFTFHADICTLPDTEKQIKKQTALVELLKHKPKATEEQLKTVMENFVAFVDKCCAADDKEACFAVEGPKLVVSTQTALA

albumin-g6p [5] = target: T5, albumin-g6p (Bos taurus, UniProt P02769); assay: Competitive binding of Thioflavin T and tPA to albumin-g6p (fluorescence, absorbance); set-up: species or system bovine; conditions: increasing amounts of tPA
T5 construct: Bovine serum albumin (BSA) fraction V pH 7.0; host or cells: bovine serum, fraction V
T5 sequence (P02769 25-607): as above
Description: A solution of 430 nM albumin-g6p and 19 μM of Thioflavin T was incubated with increasing amounts of tPA, for one hour at room temperature. For blank readings, albumin-g6p was omitted. Samples were prepared in four-fold in 50 mM glycine-NaOH pH 9. Emission measurements were performed as described above.
Albumin-g6p (500 nM) and Thioflavin T (10 μM) were incubated with increasing amounts of tPA, in 50 mM glycine-NaOH pH 9, for one hour at room temperature. Absorbance measurements were performed at the albumin-g6p Thioflavin T absorbance maximum at 420 nm. Samples were prepared in four-fold. For blank readings, albumin-g6p was omitted in the solutions. Absorbance was read in a quartz cuvette on a Pharmacia Biotech Ultrospec 3000 UV/visible spectrophotometer (Cambridge, England).

Aβ = target: T6, Aβ (Homo sapiens, UniProt P05067); assay: Solid-phase binding ELISA of tPA, plasminogen and plasmin to coated Aβ; conditions: 50 mM ε-aminocaproic acid
T6 construct: Peptide Aβ (1-40), containing amino acids as present in the described human Alzheimer peptide; purchased Pepscan, Inc. or peptide synthesis facility of the Netherlands Cancer Institute; host or cells: chemical synthesis
T6 sequence (P05067 672-711): as the sequence (P05067 672-711) above
Description: FIG. 3 is a set of graphs depicting binding of tPA, plasminogen and plasmin to Aβ. Aβ was coated onto plastic 96-well plates. Increasing concentrations of either (A) tPA or (B) plasmin(ogen) were allowed to bind to the immobilized peptide. After extensive washing, tPA and plasmin(ogen) binding was assessed by enzyme-linked immunosorbent assays using anti-tPA and anti-plasminogen antibodies. Binding of (C) tPA and (D) plasmin to Aβ in the presence of 50 mM ε-aminocaproic acid (ε-ACA) was assessed as in A and B.
To test whether tPA, plasminogen and plasmin bind Aβ, solid-phase binding assays were performed. Aβ was coated onto plastic 96-well plates and binding of the peptide to either plasmin(ogen) or to tPA was assessed by overlaying the coated peptide with increasing concentrations of either tPA, plasminogen or plasmin. Binding was assessed using specific antibodies to either plasmin(ogen) or to tPA by performing ELISA. […] However, activated plasminogen (plasmin) does bind to Aβ and does so with a kD of 47 nM. […] To test this, use was made of the lysine analogue ε-aminocaproic acid (εACA) and binding of plasmin and tPA to Aβ was tested in its presence. […] In contrast, εACA has no effect on the tPA-Aβ interaction (FIG. 3, Panel C). Thus, it was concluded that plasmin binds to free lysines that were generated during the incubation period, presumably via its lysine-binding Kringle domain(s). In line with this, the kD of plasminogen Kringle domain binding to free lysines in fibrin is similar to the kD for plasmin binding to Aβ.

mΔIAPP [6] = target: T3, mΔIAPP; assay: Amyloid ELISA with tPA F-EGF-GST: non-amyloid control; type: binding
Description: In order to define the affinity of the purified tPA F-EGF-GST recombinant protein, ELISAs were performed with immobilized amyloid (poly)peptides and non-amyloid control ΔmIAPP. Twenty-five μg ml^−1 of Aβ, FP13, IAPP or ΔmIAPP was immobilized on Exiqon peptide immobilizer plates. A concentration series of tPA F-EGF-GST in the presence of excess εACA was added to the wells and binding was assayed using anti-GST antibody Z-5. As a control, GST (Sigma-Aldrich, St. Louis, Mo., USA, catalogue #G-5663) was used at the same concentrations.

albumin-g6p [7] = target: T5, albumin-g6p; assay: ELISA: binding of tPA-F-GST and RPTPμ-GST to glycated albumin; set-up: species or system bovine; conditions: in the presence of excess εACA
Description: as §2

[8] = target: T7, H-43 binding to immobilized IAPP (Homo sapiens, UniProt P10997); assay: Competitive ELISA: tPA and H-43 on immobilized IAPP; conditions: 100 nM H-43, concentration series of tPA
T7 construct: purchased Pepscan, Inc. (The Netherlands) or peptide synthesis facility at the Netherlands Cancer Institute; host or cells: synthetic peptide
T7 sequence (P10997 34-70 limits assumed): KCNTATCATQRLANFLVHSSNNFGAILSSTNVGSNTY
Description: (§3) For ELISAs, amyloid compounds were immobilized on Exiqon peptide or protein Immobilizers (Vedbaek, Denmark), as described before. Anti-AGE antibodies and commercially available anti-Aβ (1-42) H-43 (Santa Cruz Biotechnology, Santa Cruz, Calif., USA) were diluted in PBS with 0.1% v/v Tween 20. Rabbit anti-human vitronectin K9234 was a kind gift of Dr. H. de Boer (UMC Utrecht) and was used as a negative control. For ELISAs with mouse polyclonal anti-albumin-AGE/Aβ, control serum with antibody elicited against an unrelated protein was used. Binding of mouse polyclonal anti-albumin-AGE/Aβ was performed using a dilution series of serum in PBS/0.1% Tween 20. For competitive binding assays with IAPP, anti-AGE1 was pre-incubated with varying IAPP concentrations. The IAPP fibers were spun down and the supernatant was applied in triplicate to wells of an ELISA plate coated with Aβ. Competitive binding assays with multiligand cross-β structure binding serine protease tPA were performed in a slightly different way. Coated Aβ and IAPP are overlayed with an anti-AGE1 or anti-Aβ (1-42) H-43 concentration related to the kD, together with a concentration series of tPA. A 10^7-10^4 times molar excess of lysine analogue εACA (10 mM) was present in the binding buffer in order to avoid binding of tPA to lysine residues of Aβ and IAPP, which would be independent of the presence of amyloid structures.

[9] = test system: anti-AGE1 binding to amyloid peptides (Aβ (1-40), IAPP); assay: Competitive ELISA: tPA and anti-AGE1 on immobilized Aβ (1-40) and IAPP; conditions: 250 or 18 nM α-AGE1; 10 mM εACA
Description: as §3

[10] = target: T8, FXII binding to hAβ (1-40) (Homo sapiens, UniProt P05067); assay: Competitive FXII - tPA ELISA on coated hAβ (1-40); conditions: 2.5 nM FXII; concentration series up to 135 times the kD
T8 construct: Peptide Aβ (1-40), containing amino acids as present in the described human Alzheimer peptide; purchased Calbiochem (FXII); Pepscan or Netherlands Cancer Institute (peptide) 233490 (FXII)
T8 sequence (P05067 672-711): as the sequence (P05067 672-711) above

[11] = target: T9, tPA-mediated plasminogen activation (Homo sapiens, UniProt P00750); assay: Plasminogen activation assay; type: biochemical; conditions: plasminogen 200 μg ml−1, tPA 200 pM, 5 μM co-factor; S-2251
T9 construct: purchased Boehringer-Ingelheim (Germany)
T9 sequence (P00750 36-562): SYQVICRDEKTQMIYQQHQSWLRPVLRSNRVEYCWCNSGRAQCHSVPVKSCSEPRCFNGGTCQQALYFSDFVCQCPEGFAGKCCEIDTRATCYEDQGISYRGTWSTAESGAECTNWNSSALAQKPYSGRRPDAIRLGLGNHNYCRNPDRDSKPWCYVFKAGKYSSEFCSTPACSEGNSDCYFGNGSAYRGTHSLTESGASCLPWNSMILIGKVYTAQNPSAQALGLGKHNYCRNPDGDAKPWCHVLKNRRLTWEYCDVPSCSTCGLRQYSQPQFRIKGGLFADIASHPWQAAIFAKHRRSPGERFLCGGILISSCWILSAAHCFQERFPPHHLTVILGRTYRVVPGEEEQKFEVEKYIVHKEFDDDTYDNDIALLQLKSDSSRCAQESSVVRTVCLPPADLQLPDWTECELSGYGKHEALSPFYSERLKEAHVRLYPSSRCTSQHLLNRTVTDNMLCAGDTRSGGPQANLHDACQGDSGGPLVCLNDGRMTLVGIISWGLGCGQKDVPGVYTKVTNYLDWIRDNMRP
Description: Plasminogen (200 μg ml^−1) was incubated with tPA (200 pM) in the presence or the absence of a co-factor (5 μM of either endostatin, Aβ (1-40), or one the fibrin-derived peptides 85, 86 and 87). At the indicated time intervals, samples were taken and the reaction was stopped in a buffer containing 5 mM EDTA and 150 mM εACA. After collection of the samples, a chromogenic plasmin substrate S-2251 was added and plasmin activity was determined kinetically in a spectrophotometer at 37° C.

neuronal cell death = assay: Endostatin-induced cell death by methylene blue staining; type: cell-based; conditions: precipitated form
Text: FIG. 6 is a set of graphs illustrating that endostatin can form fibers comprising cross-β structure and stimulates plasminogen activation. […] Aβ is shown for comparison. Panel D is an analysis of endostatin-induced cell death by methylene blue staining. […] Direct cell death, but not cell detachment, is protected in the presence of sufficient glucose. Buffer prec. indicates control buffer.

FXII: human FXII (Calbiochem, catalogue #233490)
binding to spotted hΔIAPP [1]: specifically bound
binding to negative controls ΔmIAPP, albumin-control and Hb-control [2]: does not bind
binding to spotted hAβ (1-40) (hAβ (1-40)): specifically bound
binding to spotted mΔIAPP (mΔIAPP [3]): No binding

tPA: Alteplase (recombinant tissue-type plasminogen activator, tPA) from Boehringer-Ingelheim
binding of control tPA to human Aβ (1-40) (Aβ (1-40)): bound
inhibition of FXII binding to albumin-AGE [4]: effectively abolished
competition with binding of Thioflavin T to glycated albumin (albumin-g6p [5]): competed
binding to Aβ in the presence of εACA (Aβ): no effect
binding to non-amyloid mΔIAPP (mΔIAPP [6]): No binding
binding of control tPA to albumin-g6p (albumin-g6p [7]): bound
inhibition of H-43 binding to immobilized IAPP [8]: effectively diminished
inhibition of anti-AGE1 binding to amyloid peptides [9]: inhibited
inhibition of FXII binding to hAβ (1-40) [10]: efficiently inhibits

endostatin
stimulation of tPA-mediated plasmin formation [11]: stimulating activity
induction of cell death (neuronal cell death): capable of efficiently inducing cell death
